Like-named read-outs stand apart in the source and are kept apart here.
What was measured:
[1] = biological target: recombinant human APRIL (Tonbo Biosciences) (human) (UniProt O75888); experiment: cell-based or functional assay
[2] = biological target: recombinant human BAFF (BioLegend) (human) (UniProt Q9Y275); experiment: cell-based or functional assay
[3] = biological target: recombinant human APRIL (Tonbo Biosciences) (human) (UniProt O75888); experiment: cell-based or functional assay; set-up: IC50 APRIL (Δ TACI 30-110-Fc) / IC50 BAFF (Δ TACI 30-110-Fc): unit not given beside the values
[4] = biological target: recombinant human BAFF (BioLegend) (human) (UniProt Q9Y275); experiment: cell-based or functional assay; set-up: IC50 APRIL (Δ TACI 30-110-Fc) / IC50 BAFF (Δ TACI 30-110-Fc): unit not given beside the values
[5] = biological target: recombinant human APRIL (Tonbo Biosciences) (human) (UniProt O75888); experiment: cell-based or functional assay; set-up: IC50 APRIL (Δ TACI 30-110) / IC50 BAFF (Δ TACI 30-110): unit not given beside the values
[6] = biological target: recombinant human BAFF (BioLegend) (human) (UniProt Q9Y275); experiment: cell-based or functional assay; set-up: IC50 APRIL (Δ TACI 30-110) / IC50 BAFF (Δ TACI 30-110): unit not given beside the values
[7] = biological target: APRIL+BAFF (15 nM APRIL+10 nM BAFF) in combination; experiment: cell-based or functional assay
[8] = biological target: recombinant human BAFF (BioLegend) (human) (UniProt Q9Y275)

Chain of TACI 13-118-Fc (WT TACI 13-118, SEQ ID NO:131, fused to the Fc of SEQ ID NO: 73) (Fc fusion) (chain): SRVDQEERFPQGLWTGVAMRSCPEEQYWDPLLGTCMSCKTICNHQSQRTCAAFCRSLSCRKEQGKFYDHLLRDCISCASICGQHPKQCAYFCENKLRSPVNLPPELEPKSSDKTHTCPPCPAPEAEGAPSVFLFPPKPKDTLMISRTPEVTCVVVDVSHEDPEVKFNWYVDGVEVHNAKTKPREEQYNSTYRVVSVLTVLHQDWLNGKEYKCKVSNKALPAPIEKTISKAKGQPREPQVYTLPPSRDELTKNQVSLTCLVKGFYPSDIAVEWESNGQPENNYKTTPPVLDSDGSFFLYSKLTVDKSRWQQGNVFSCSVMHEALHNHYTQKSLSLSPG
Chain of TACI 30-110-Fc (WT TACI 30-110, SEQ ID NO:130, fused to the Fc of SEQ ID NO: 73) (Fc fusion) (chain): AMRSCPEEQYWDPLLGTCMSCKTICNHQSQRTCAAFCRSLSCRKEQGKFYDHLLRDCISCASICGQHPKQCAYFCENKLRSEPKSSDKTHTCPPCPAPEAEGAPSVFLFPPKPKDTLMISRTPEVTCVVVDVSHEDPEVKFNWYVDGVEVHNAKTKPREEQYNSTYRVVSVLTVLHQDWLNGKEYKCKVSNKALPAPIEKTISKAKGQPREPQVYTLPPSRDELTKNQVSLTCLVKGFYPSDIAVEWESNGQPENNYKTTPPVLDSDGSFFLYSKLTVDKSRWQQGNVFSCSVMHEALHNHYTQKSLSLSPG
Chain of recombinant human APRIL (Tonbo Biosciences) (human) (O75888 105-250 limits assumed): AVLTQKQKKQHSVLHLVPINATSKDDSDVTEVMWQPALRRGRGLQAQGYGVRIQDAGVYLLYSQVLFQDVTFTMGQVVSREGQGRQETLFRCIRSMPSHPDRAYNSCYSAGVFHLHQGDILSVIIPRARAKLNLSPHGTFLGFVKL
Chain of Telitacicept/Tai'ai (RemeGen) (Fc fusion) (chain): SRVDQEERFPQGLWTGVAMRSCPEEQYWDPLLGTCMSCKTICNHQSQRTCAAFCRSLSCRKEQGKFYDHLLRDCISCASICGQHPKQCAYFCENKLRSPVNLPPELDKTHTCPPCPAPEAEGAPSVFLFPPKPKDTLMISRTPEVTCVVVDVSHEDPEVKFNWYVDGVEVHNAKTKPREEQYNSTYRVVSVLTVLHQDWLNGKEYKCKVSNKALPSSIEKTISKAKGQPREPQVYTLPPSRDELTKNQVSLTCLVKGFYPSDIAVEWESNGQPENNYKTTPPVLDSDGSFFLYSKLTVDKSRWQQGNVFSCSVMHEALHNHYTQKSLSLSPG

“TACI vTD-Fc with the vTD of SEQ ID NO: 177 (Q75E) (Fc fusion)” showed an APRIL IC50 (pM) [1] of 1940 pM, an APRIL IC50 (Δ WT) [1] of 0.16 and a BAFF IC50 (pM) [2] of 1460 pM. It also gave a BAFF IC50 (Δ WT) [2] of 0.79.

With “27 TACI CRD2-Fc (TACI vTD SEQ ID NO:27, Q75E/R84Q) (Fc fusion)” the IC50 (nM) APRIL [3] was 262 nM, the IC50 APRIL (Δ TACI 30-110-Fc) [3] was 0.07 and the IC50 (nM) BAFF [4] was 1390 nM. The IC50 BAFF (Δ TACI 30-110-Fc) [4] was 0.24, the APRIL IC50 (pM) [1] was 11800 pM and the APRIL IC50 (Δ WT) [1] was 0.96. For the same substance, the BAFF IC50 (pM) [2] was 1460 pM and the BAFF IC50 (Δ WT) [2] was 0.79.

With “TACI vTD-Fc with the vTD of SEQ ID NO: 186 (F78Y, Y102D) (Fc fusion)” the APRIL IC50 (pM) [1] was 8490 pM, the APRIL IC50 (Δ WT) [1] was 0.69 and the BAFF IC50 (pM) [2] was 1960 pM. It also gave a BAFF IC50 (Δ WT) [2] of 1.06.

“TACI vTD-Fc with the vTD of SEQ ID NO: 32 (K77E) (Fc fusion)” was tested, and the APRIL IC50 (pM) [1] was 159 pM, the APRIL IC50 (Δ WT) [1] was 0.01 and the BAFF IC50 (pM) [2] was 1540 pM. For the same substance, the BAFF IC50 (Δ WT) [2] was 0.83.

Substance “TACI 30-110-Fc (WT TACI 30-110, SEQ ID NO:130, fused to the Fc of SEQ ID NO: 73) (Fc fusion)” has an IC50 (nM) APRIL [3] of 3850 nM, an IC50 APRIL (Δ TACI 30-110-Fc) [3] of 1 and an IC50 (nM) BAFF [4] of 5770 nM. For the same substance, the IC50 BAFF (Δ TACI 30-110-Fc) [4] was 1, the IC50 (nM) APRIL [5] was 4320 nM and the IC50 APRIL (Δ TACI 30-110) [5] was 1. For the same substance, the IC50 (nM) BAFF [6] was 4490 nM and the IC50 BAFF (Δ TACI 30-110) [6] was 1.

“TACI vTD-Fc with the vTD of SEQ ID NO: 182 (K77E, F78Y, R84Q) (Fc fusion)” showed an APRIL IC50 (pM) [1] of 10100 pM, an APRIL IC50 (Δ WT) [1] of 0.82 and a BAFF IC50 (pM) [2] of 2210 pM. For the same substance, the BAFF IC50 (Δ WT) [2] was 1.19.

Work on “TACI vTD-Fc with the vTD of SEQ ID NO: 189 (A101D, Y102D) (Fc fusion)” yielded an APRIL IC50 (pM) [1] of 33600 pM, an APRIL IC50 (Δ WT) [1] of 2.72 and a BAFF IC50 (pM) [2] of 1950 pM. For the same substance, the BAFF IC50 (Δ WT) [2] was 1.05.

“TACI vTD-Fc with the vTD of SEQ ID NO: 180 (Q75E, A101D) (Fc fusion)” gave an APRIL IC50 (pM) [1] of 20000 pM, an APRIL IC50 (Δ WT) [1] of 1.62 and a BAFF IC50 (pM) [2] of 2360 pM. For the same substance, the BAFF IC50 (Δ WT) [2] was 1.27.

In the case of “29 TACI CRD2-Fc (TACI vTD SEQ ID NO:29, K77E/A101D/Y102D) (Fc fusion)”, the IC50 (nM) APRIL [3] was 339 nM, the IC50 APRIL (Δ TACI 30-110-Fc) [3] was 0.09 and the IC50 (nM) BAFF [4] was 1340 nM. For the same substance, the IC50 BAFF (Δ TACI 30-110-Fc) [4] was 0.23, the APRIL IC50 (pM) [1] was 2910 pM and the APRIL IC50 (Δ WT) [1] was 0.24. For the same substance, the BAFF IC50 (pM) [2] was 1180 pM and the BAFF IC50 (Δ WT) [2] was 0.64.

“TACI vTD-Fc with the vTD of SEQ ID NO: 178 (Q75E, K77E) (Fc fusion)” was tested, and the APRIL IC50 (pM) [1] was 10700 pM, the APRIL IC50 (Δ WT) [1] was 0.87 and the BAFF IC50 (pM) [2] was 1890 pM. For the same substance, the BAFF IC50 (Δ WT) [2] was 1.02.

In the case of “TACI vTD-Fc with the vTD of SEQ ID NO: 188 (R84Q, Y102D) (Fc fusion)”, the APRIL IC50 (pM) [1] was 12300 pM, the APRIL IC50 (Δ WT) [1] was 1 and the BAFF IC50 (pM) [2] was 1860 pM. The BAFF IC50 (Δ WT) [2] was 1.01.

For “TACI vTD-Fc with the vTD of SEQ ID NO: 190 (Y102D) (Fc fusion)”, the APRIL IC50 (pM) [1] was 11600 pM, the APRIL IC50 (Δ WT) [1] was 0.94 and the BAFF IC50 (pM) [2] was 1860 pM. It also gave a BAFF IC50 (Δ WT) [2] of 1.

BAFF-R ECD (control) (receptor) was tested, and the BAFF IC50 (pM) [2] was 53200 pM and the BAFF IC50 (Δ WT) [2] was 28.7.

Work on “TACI vTD-Fc with the vTD of SEQ ID NO: 179 (Q75E, F78Y) (Fc fusion)” yielded an APRIL IC50 (pM) [1] of 13400 pM, an APRIL IC50 (Δ WT) [1] of 1.09 and a BAFF IC50 (pM) [2] of 1790 pM. The BAFF IC50 (Δ WT) [2] was 0.97.

With “Telitacicept/Tai'ai (RemeGen) (Fc fusion)” the IC50 (pM) BAFF + APRIL [7] was 16800 pM.

For “TACI vTD-Fc with the vTD of SEQ ID NO: 30 (R84Q) (Fc fusion)”, the APRIL IC50 (pM) [1] was 566 pM, the APRIL IC50 (Δ WT) [1] was 0.05 and the BAFF IC50 (pM) [2] was 5490 pM. It also gave a BAFF IC50 (Δ WT) [2] of 2.96 and an IC50 (read off the curve) [8] of 0.001 µM.

Work on “TACI vTD-Fc with the vTD of SEQ ID NO: 24 (K77E, R84Q) (Fc fusion)” yielded an APRIL IC50 (pM) [1] of 4260 pM, an APRIL IC50 (Δ WT) [1] of 0.35 and a BAFF IC50 (pM) [2] of 2260 pM. It also gave a BAFF IC50 (Δ WT) [2] of 1.22.

With “TACI vTD-Fc with the vTD of SEQ ID NO: 181 (Q75E, Y102D) (Fc fusion)” the APRIL IC50 (pM) [1] was 11100 pM, the APRIL IC50 (Δ WT) [1] was 0.9 and the BAFF IC50 (pM) [2] was 2150 pM. It also gave a BAFF IC50 (Δ WT) [2] of 1.16.

With “TACI vTD-Fc with the vTD of SEQ ID NO: 183 (F78Y) (Fc fusion)” the APRIL IC50 (pM) [1] was 176 pM, the APRIL IC50 (Δ WT) [1] was 0.01 and the BAFF IC50 (pM) [2] was 1640 pM. For the same substance, the BAFF IC50 (Δ WT) [2] was 0.88.

Work on “TACI vTD-Fc with the vTD of SEQ ID NO: 192 (K77E, Y102D) (Fc fusion)” yielded an APRIL IC50 (pM) [1] of 891 pM, an APRIL IC50 (Δ WT) [1] of 0.07 and a BAFF IC50 (pM) [2] of 2180 pM. For the same substance, the BAFF IC50 (Δ WT) [2] was 1.17.

Work on “TACI vTD-Fc with the vTD of SEQ ID NO: 187 (R84Q, A101D) (Fc fusion)” yielded an APRIL IC50 (pM) [1] of 11200 pM, an APRIL IC50 (Δ WT) [1] of 0.91 and a BAFF IC50 (pM) [2] of 2350 pM. For the same substance, the BAFF IC50 (Δ WT) [2] was 1.27.

“TACI vTD-Fc with the vTD of SEQ ID NO: 25 (K77E, A101D) (Fc fusion)” showed an APRIL IC50 (pM) [1] of 2040 pM, an APRIL IC50 (Δ WT) [1] of 0.17 and a BAFF IC50 (pM) [2] of 1960 pM. It also gave a BAFF IC50 (Δ WT) [2] of 1.06.

In the case of “TACI vTD-Fc with the vTD of SEQ ID NO: 23 (A101D) (Fc fusion)”, the APRIL IC50 (pM) [1] was 8380 pM, the APRIL IC50 (Δ WT) [1] was 0.68 and the BAFF IC50 (pM) [2] was 1830 pM. It also gave a BAFF IC50 (Δ WT) [2] of 0.99.

“TACI vTD-Fc with the vTD of SEQ ID NO: 191 (K77E, F78Y) (Fc fusion)” was tested, and the APRIL IC50 (pM) [1] was 10100 pM, the APRIL IC50 (Δ WT) [1] was 0.82 and the BAFF IC50 (pM) [2] was 1970 pM. For the same substance, the BAFF IC50 (Δ WT) [2] was 1.06.

In the case of “TACI vTD-Fc with the vTD of SEQ ID NO: 185 (F78Y, A101D) (Fc fusion)”, the APRIL IC50 (pM) [1] was 2020 pM, the APRIL IC50 (Δ WT) [1] was 0.16 and the BAFF IC50 (pM) [2] was 1850 pM. It also gave a BAFF IC50 (Δ WT) [2] of 1.

For “TACI vTD-Fc with the vTD of SEQ ID NO: 184 (F78Y, R84Q) (Fc fusion)”, the APRIL IC50 (pM) [1] was 2620 pM, the APRIL IC50 (Δ WT) [1] was 0.21 and the BAFF IC50 (pM) [2] was 2260 pM. The BAFF IC50 (Δ WT) [2] was 1.22.

“TACI 13-118, with K77E/F78Y/Y102D, fused to the Fc of SEQ ID NO:73 (Fc fusion)” showed an APRIL IC50 (pM) [1] of 13200 pM, an APRIL IC50 (Δ WT) [1] of 1.07 and a BAFF IC50 (pM) [2] of 1990 pM. It also gave a BAFF IC50 (Δ WT) [2] of 1.07, an IC50 (nM) APRIL [5] of 848 nM and an IC50 APRIL (Δ TACI 30-110) [5] of 0.2. The IC50 (nM) BAFF [6] was 2050 nM and the IC50 BAFF (Δ TACI 30-110) [6] was 0.46.

Substance “TACI 13-118-Fc (WT TACI 13-118, SEQ ID NO:131, fused to the Fc of SEQ ID NO: 73) (Fc fusion)” has an IC50 (nM) APRIL [3] of 9100 nM, an IC50 APRIL (Δ TACI 30-110-Fc) [3] of 2.37 and an IC50 (nM) BAFF [4] of 7700 nM. For the same substance, the IC50 BAFF (Δ TACI 30-110-Fc) [4] was 1.33, the BAFF IC50 (pM) [2] was 7900 pM and the BAFF IC50 (Δ WT) [2] was 4.26. The IC50 (nM) APRIL [5] was 7810 nM, the IC50 APRIL (Δ TACI 30-110) [5] was 1.81 and the IC50 (nM) BAFF [6] was 8450 nM. It also gave an IC50 BAFF (Δ TACI 30-110) [6] of 1.88.
